These substances were tested against HLA-A*03:01 (Homo sapiens, UniProt P04439) (assay: MHC binding assay (UV-ligand exchange, β2m ELISA)). Details: binding to HLA-A*03:01, UV-ligand exchange, β2m ELISA.
Text: Candidate peptides for T cell based therapies according to the present invention were further tested for their MHC binding capacity (affinity). The individual peptide-MHC complexes were produced by UV-ligand exchange, where a UV-sensitive peptide is cleaved upon UV-irradiation and exchanged with the peptide of interest as analyzed. Only peptide candidates that can effectively bind and stabilize the peptide-receptive MHC molecules prevent dissociation of the MHC complexes. To determine the yield of the exchange reaction, an ELISA was performed based on the detection of the light chain (β2m) of stabilized MHC complexes. The assay was performed as generally described in Rodenko et al. (Rodenko et al., 2006) 96 well MAXISorp plates (NUNC) were coated over night with 2 ug/ml streptavidin in PBS at room temperature, washed 4× and blocked for 1 h at 37° C. in 2% BSA containing blocking buffer. Refolded HLA-A*02:01/MLA-001 monomers served as standards, covering the range of 15-500 ng/ml. Peptide-MHC monomers of the UV-exchange reaction were diluted 100-fold in blocking buffer. Samples were incubated for 1 h at 37° C., washed four times, incubated with 2 ug/ml HRP conjugated anti-β2m for 1 h at 37° C., washed again and detected with TMB solution that is stopped with […]. Absorption was measured at 450 nm. Candidate peptides that show a high exchange yield (preferably higher than 50%, most preferred higher than 75%) are generally preferred for a generation and production of antibodies or fragments thereof, and/or T cell receptors or fragments thereof, as they show sufficient avidity to the MHC molecules and prevent dissociation of the MHC complexes.

Substance	Peptide exchange (MHC class I binding score, peptide exchange yield)
61 (SLYDSEPRKK; listed as Homo sapiens) [compound 61]	++++ (>75% = ++++)
62 (GIFPKIMPK; listed as Homo sapiens) [compound 62]	++++ (>75% = ++++)
63 (SSFRPLLSK; listed as Homo sapiens) [compound 63]	++++ (>75% = ++++)
65 (RTIEELQNK; listed as Homo sapiens) [compound 65]	+++ (>50 = +++)
66 (RVKEIVINK; listed as Homo sapiens) [compound 66]	+++ (>50 = +++)
67 (VVREILHAQTLK; listed as Homo sapiens) [compound 67]	+++ (>50 = +++)
68 (KGPMAGILAY; listed as Homo sapiens) [compound 68]	++ (>20% = ++)
70 (VTAVASLLK; listed as Homo sapiens) [compound 70]	++++ (>75% = ++++)
72 (KLYPQCLQK; listed as Homo sapiens) [compound 72]	++++ (>75% = ++++)
73 (RCFSGPYLNK; listed as Homo sapiens) [compound 73]	++++ (>75% = ++++)
75 (IIFVPEMNK; listed as Homo sapiens) [compound 75]	++++ (>75% = ++++)
76 (IINESLLFY; listed as Homo sapiens) [compound 76]	+++ (>50 = +++)
78 (KTGTFVLYKS; listed as Homo sapiens) [compound 78]	+++ (>50 = +++)
79 (AVAAVLLSR; listed as Homo sapiens) [compound 79]	+++ (>50 = +++)
80 (ALCGTQLFY; listed as Homo sapiens) [compound 80]	++++ (>75% = ++++)
82 (CLANYTVNK; listed as Homo sapiens) [compound 82]	++++ (>75% = ++++)
83 (KLADSVMAGK; listed as Homo sapiens) [compound 83]	++++ (>75% = ++++)

Substance	Peptide exchange (MHC class I binding score, peptide exchange yield)
84 (QLYSPPSPSYR; listed as Homo sapiens) [compound 84]	++++ (>75% = ++++)
85 (IMPTFDLTK; listed as Homo sapiens) [compound 85]	+ (>10% = +)
86 (RVSGSGGGGAGK; listed as Homo sapiens) [compound 86]	+++ (>50 = +++)
87 (RLASVGLDAK; listed as Homo sapiens) [compound 87]	++++ (>75% = ++++)
88 (GTHVWVGLYK; listed as Homo sapiens) [compound 88]	++++ (>75% = ++++)
89 (VIYVICRHK; listed as Homo sapiens) [compound 89]	+++ (>50 = +++)
90 (RTALLWGLKK; listed as Homo sapiens) [compound 90]	++++ (>75% = ++++)
91 (IMKRQVKCITK; listed as Homo sapiens) [compound 91]	+ (>10% = +)
92 (KRIPFRPLAK; listed as Homo sapiens) [compound 92]	++ (>20% = ++)
93 (SVEGLSRRLK; listed as Homo sapiens) [compound 93]	+++ (>50 = +++)
94 (GMTLLCEALK; listed as Homo sapiens) [compound 94]	++ (>20% = ++)
95 (FLGLAFHPK; listed as Homo sapiens) [compound 95]	++ (>20% = ++)
96 (RAVSVNPGK; listed as Homo sapiens) [compound 96]	+ (>10% = +)
97 (RVRALGSQY; listed as Homo sapiens) [compound 97]	++++ (>75% = ++++)
98 (VSVAGSILAK; listed as Homo sapiens) [compound 98]	++ (>20% = ++)
99 (RTYTCQVTY; listed as Homo sapiens) [compound 99]	++++ (>75% = ++++)

Second part, the substance after the results:

Peptide exchange (MHC class I binding score, peptide exchange yield)	Substance
+++ (>50 = +++)	100 (TTNARILAR; listed as Homo sapiens) [compound 100]
+++ (>50 = +++)	101 (HMDEFKRTQK; listed as Homo sapiens) [compound 101]
++++ (>75% = ++++)	102 (RLLQHTPSAR; listed as Homo sapiens) [compound 102]
++++ (>75% = ++++)	103 (SIYKKAVYR; listed as Homo sapiens) [compound 103]
++ (>20% = ++)	104 (AVVQGLVEK; listed as Homo sapiens) [compound 104]
++ (>20% = ++)	105 (QVLDLQSVK; listed as Homo sapiens) [compound 105]
++ (>20% = ++)	106 (LLRSGLTLR; listed as Homo sapiens) [compound 106]
+++ (>50 = +++)	107 (ILNLNKMVK; listed as Homo sapiens) [compound 107]
+++ (>50 = +++)	109 (KLQNLPTLLY; listed as Homo sapiens) [compound 109]
++++ (>75% = ++++)	110 (IIFIPATILLK; listed as Homo sapiens) [compound 110]
++++ (>75% = ++++)	111 (ATSPPASVR; listed as Homo sapiens) [compound 111]
+++ (>50 = +++)	112 (ASLAAAVLAK; listed as Homo sapiens) [compound 112]
+ (>10% = +)	113 (VSIRNTLLY; listed as Homo sapiens) [compound 113]
++++ (>75% = ++++)	114 (SLLTVSGAWAK; listed as Homo sapiens) [compound 114]
+++ (>50 = +++)	115 (AILHPFRAK; listed as Homo sapiens) [compound 115]
++ (>20% = ++)	117 (TVFVELWLK; listed as Homo sapiens) [compound 117]
+ (>10% = +)	118 (SLRGSFPILY; listed as Homo sapiens) [compound 118]
++++ (>75% = ++++)	119 (RMGFRTLSK; listed as Homo sapiens) [compound 119]
++ (>20% = ++)	120 (TRMQKAGFLYY; listed as Homo sapiens) [compound 120]
++++ (>75% = ++++)	122 (LIGPLLICK; listed as Homo sapiens) [compound 122]
+++ (>50 = +++)	124 (VVYDTMIEK; listed as Homo sapiens) [compound 124]
++++ (>75% = ++++)	125 (VVYDTMIEKF; listed as Homo sapiens) [compound 125]
++ (>20% = ++)	127 (GLAAGALLLY; listed as Homo sapiens) [compound 127]
++++ (>75% = ++++)	128 (KIKKPLSYR; listed as Homo sapiens) [compound 128]
+++ (>50 = +++)	129 (ALARVSSVKL; listed as Homo sapiens) [compound 129]
++++ (>75% = ++++)	131 (RVDSKQRYY; listed as Homo sapiens) [compound 131]
+++ (>50 = +++)	132 (ASSFRPLLSK; listed as Homo sapiens) [compound 132]
+++ (>50 = +++)	134 (SLLKPSGDYFK; listed as Homo sapiens) [compound 134]
++++ (>75% = ++++)	136 (ALSRMSQQY; listed as Homo sapiens) [compound 136]
++++ (>75% = ++++)	137 (TVYVAMCHKF; listed as Homo sapiens) [compound 137]
